Assay results as given in the supplement of paper PMC9112550, “Optimization of the antimicrobial peptide Bac7 by deep mutational scanning” (BMC Biology, 2022).

Each sequence was assayed on Escherichia coli TOP10 (assay: shrunken log2 fold change of peptide-encoding DNA abundance (4.5 h post-induction vs induction); higher = less antimicrobial activity (less host growth inhibition)). Details: time post-induction: 4.5 h; library: site-saturation at positions 5, 18, 19, 20.
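Further: peptides expressed intracellularly from a pBAD plasmid library in pooled LB shake-flask culture, induced with 0.3% L-arabinose, DNA abundance read by NGS, three biological replicates, DESeq2 with apeglm shrinkage.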

Sequence | shrunken log2 fold change
RRIRMRPPRLPRPRPRPHEYPRP | -0.308
RRIRPRPPRLPRPRPRPLLDPRP | 0.0537
RRIRERPPRLPRPRPRPPPEPRP | 0.574
RRIRKRPPRLPRPRPRPKPGPRP | 1.2
RRIRARPPRLPRPRPRPAYYPRP | -0.166
RRIRCRPPRLPRPRPRPGLWPRP | 0.569
RRIRGRPPRLPRPRPRPMARPRP | 0.318
RRIRERPPRLPRPRPRPRRLPRP | 0.138
RRIRARPPRLPRPRPRPGFCPRP | 0.572
RRIRVRPPRLPRPRPRPANGPRP | 0.136
RRIRFRPPRLPRPRPRPDGYPRP | 0.028
RRIRWRPPRLPRPRPRPKIQPRP | 0.21
RRIRLRPPRLPRPRPRPFIYPRP | -0.504
RRIRDRPPRLPRPRPRPNSGPRP | -0.269
RRIRMRPPRLPRPRPRPAMMPRP | 0.59
RRIRSRPPRLPRPRPRPLKCPRP | -0.0843
RRIRHRPPRLPRPRPRPSHNPRP | -0.433
RRIRERPPRLPRPRPRPKIDPRP | -0.0798
RRIRLRPPRLPRPRPRPVNDPRP | -0.52
RRIRPRPPRLPRPRPRPIKFPRP | -0.908
RRIRVRPPRLPRPRPRPILGPRP | 0.0313
RRIRIRPPRLPRPRPRPMGKPRP | -0.0139
RRIRKRPPRLPRPRPRPERQPRP | 0.0351
RRIRRRPPRLPRPRPRPPPEPRP | 1.37
RRIRFRPPRLPRPRPRPPRFPRP | 0.454

Sequence | shrunken log2 fold change
RRIRLRPPRLPRPRPRPAKQPRP | 0.0963
RRIRKRPPRLPRPRPRPKYLPRP | -0.0198
RRIRVRPPRLPRPRPRPVRRPRP | 2.95
RRIRERPPRLPRPRPRPQECPRP | -0.399
RRIRTRPPRLPRPRPRPNNMPRP | -0.346
RRIRRRPPRLPRPRPRPNEAPRP | 0.271
RRIRHRPPRLPRPRPRPPTTPRP | -0.175
RRIRVRPPRLPRPRPRPYQEPRP | 0.00202
RRIRSRPPRLPRPRPRPEGLPRP | -0.0431
RRIRNRPPRLPRPRPRPRGQPRP | 0.114
RRIRMRPPRLPRPRPRPEIHPRP | 0.176
RRIRCRPPRLPRPRPRPEQWPRP | 0.594
RRIRIRPPRLPRPRPRPVSTPRP | -0.342
RRIRGRPPRLPRPRPRPRKTPRP | 0.375
RRIRERPPRLPRPRPRPLDLPRP | -0.357
RRIRNRPPRLPRPRPRPFGLPRP | -0.231
RRIRRRPPRLPRPRPRPCCKPRP | -0.0824
RRIRRRPPRLPRPRPRPFQGPRP | -0.0527
RRIRARPPRLPRPRPRPWQMPRP | -0.0506
RRIRFRPPRLPRPRPRPILQPRP | -0.0746
RRIRFRPPRLPRPRPRPIVFPRP | -0.0906
RRIRMRPPRLPRPRPRPVAKPRP | 1.43
RRIRVRPPRLPRPRPRPILVPRP | -0.00597
RRIRVRPPRLPRPRPRPETNPRP | 0.0778
RRIRCRPPRLPRPRPRPMSDPRP | 0.113

Sequence | shrunken log2 fold change
RRIRFRPPRLPRPRPRPRVYPRP | -0.217
RRIRFRPPRLPRPRPRPGECPRP | -0.228
RRIRKRPPRLPRPRPRPDFAPRP | -0.033
RRIRCRPPRLPRPRPRPHSCPRP | -0.132
RRIRSRPPRLPRPRPRPNIFPRP | -0.138
RRIRKRPPRLPRPRPRPTNIPRP | -0.188
RRIRKRPPRLPRPRPRPSARPRP | 0.468
RRIRWRPPRLPRPRPRPAFFPRP | 0.111
RRIRTRPPRLPRPRPRPSGEPRP | 2.88
RRIRPRPPRLPRPRPRPEMVPRP | 0.191
RRIRCRPPRLPRPRPRPCAWPRP | 0.0576
RRIRERPPRLPRPRPRPNNKPRP | -0.849
RRIRWRPPRLPRPRPRPAMLPRP | 0.365
RRIRQRPPRLPRPRPRPSSFPRP | -0.308
RRIRGRPPRLPRPRPRPDMKPRP | 0.00543
RRIRHRPPRLPRPRPRPECRPRP | 0.0764
RRIRYRPPRLPRPRPRPPACPRP | -0.146
RRIRERPPRLPRPRPRPDKAPRP | -0.0525
RRIRNRPPRLPRPRPRPKSDPRP | -0.168
RRIRTRPPRLPRPRPRPVSHPRP | -0.265
RRIRIRPPRLPRPRPRPRDDPRP | 0.168
RRIRRRPPRLPRPRPRPICWPRP | 0.388
RRIRNRPPRLPRPRPRPNTRPRP | -0.115
RRIRHRPPRLPRPRPRPHTFPRP | -0.386
RRIRLRPPRLPRPRPRPWMKPRP | -0.249

Sequence | shrunken log2 fold change
RRIRCRPPRLPRPRPRPGEYPRP | 0.0239
RRIRRRPPRLPRPRPRPWPEPRP | -0.201
RRIRFRPPRLPRPRPRPWCWPRP | 0.155
RRIRERPPRLPRPRPRPKEQPRP | 0.0401
RRIRNRPPRLPRPRPRPIPWPRP | -0.102
RRIRLRPPRLPRPRPRPVCDPRP | -0.0188
RRIRERPPRLPRPRPRPESCPRP | -0.0125
RRIRYRPPRLPRPRPRPTVHPRP | -1.3
RRIRRRPPRLPRPRPRPTLTPRP | 0.466
RRIRFRPPRLPRPRPRPTRGPRP | 0.54
RRIRSRPPRLPRPRPRPAGMPRP | 0.223
RRIRARPPRLPRPRPRPTCRPRP | 0.592
RRIRWRPPRLPRPRPRPYEEPRP | -0.334
RRIRVRPPRLPRPRPRPWDFPRP | -0.0763
RRIRFRPPRLPRPRPRPVYYPRP | -1.27
RRIRERPPRLPRPRPRPKKGPRP | -0.438
RRIRPRPPRLPRPRPRPHSCPRP | -0.11
RRIRWRPPRLPRPRPRPGQPPRP | 0.326
RRIRGRPPRLPRPRPRPMSFPRP | 0.308
RRIRYRPPRLPRPRPRPSCTPRP | -1.36
RRIRQRPPRLPRPRPRPPVNPRP | -0.0759
RRIRHRPPRLPRPRPRPHAPPRP | -0.0972
RRIRCRPPRLPRPRPRPYKTPRP | -0.404
RRIRIRPPRLPRPRPRPGCFPRP | -0.0641
RRIRSRPPRLPRPRPRPNKDPRP | -0.651

Sequence | shrunken log2 fold change
RRIRRRPPRLPRPRPRPDEPPRP | -0.0328
RRIRFRPPRLPRPRPRPQYWPRP | -0.462
RRIRWRPPRLPRPRPRPNWSPRP | -0.0695
RRIRSRPPRLPRPRPRPDLNPRP | 0.0448
RRIRWRPPRLPRPRPRPKVKPRP | 0.49
RRIRHRPPRLPRPRPRPLYAPRP | -0.402
RRIRARPPRLPRPRPRPCQHPRP | -0.274
RRIRMRPPRLPRPRPRPRRAPRP | 1.55
RRIRHRPPRLPRPRPRPNCIPRP | -0.753
RRIRRRPPRLPRPRPRPWAVPRP | -0.00967
RRIRWRPPRLPRPRPRPIHTPRP | -0.275
RRIRERPPRLPRPRPRPWTPPRP | -0.15
RRIRTRPPRLPRPRPRPRRRPRP | 0.411
RRIRTRPPRLPRPRPRPYQMPRP | 0.0528
RRIRRRPPRLPRPRPRPNRVPRP | -0.0133
RRIRERPPRLPRPRPRPIAMPRP | 0.188
RRIRHRPPRLPRPRPRPFMSPRP | -0.301
RRIRVRPPRLPRPRPRPSCYPRP | -0.568
RRIRERPPRLPRPRPRPVNSPRP | 0.0303
RRIRWRPPRLPRPRPRPVYTPRP | -0.242
RRIRGRPPRLPRPRPRPTERPRP | 0.675
RRIRKRPPRLPRPRPRPMPSPRP | 0.0546
RRIRTRPPRLPRPRPRPSVLPRP | -0.239
RRIRNRPPRLPRPRPRPFAAPRP | 0.0928
RRIRMRPPRLPRPRPRPMQYPRP | -0.315

Sequence | shrunken log2 fold change
RRIRFRPPRLPRPRPRPFGNPRP | 0.0348
RRIRYRPPRLPRPRPRPWMYPRP | -0.00277
RRIRVRPPRLPRPRPRPMKNPRP | -0.104
RRIRERPPRLPRPRPRPMWVPRP | 0.292
RRIRWRPPRLPRPRPRPHLYPRP | -0.125
RRIRRRPPRLPRPRPRPEIKPRP | 0.27
RRIRARPPRLPRPRPRPSCHPRP | -0.138
RRIRFRPPRLPRPRPRPELVPRP | 0.616
RRIRTRPPRLPRPRPRPDALPRP | 0.162
RRIRRRPPRLPRPRPRPGFNPRP | 0.0515
RRIRQRPPRLPRPRPRPFVAPRP | 0.0106
RRIRLRPPRLPRPRPRPQNSPRP | -0.767
RRIRQRPPRLPRPRPRPFYVPRP | -0.484
RRIRARPPRLPRPRPRPDSVPRP | 0.118
RRIRDRPPRLPRPRPRPASPPRP | 0.384
RRIRERPPRLPRPRPRPNIYPRP | -0.538
RRIRARPPRLPRPRPRPGCNPRP | 0.252
RRIRPRPPRLPRPRPRPKPQPRP | 0.397
RRIRIRPPRLPRPRPRPRSTPRP | -0.391
RRIRCRPPRLPRPRPRPNFSPRP | -0.382
RRIRPRPPRLPRPRPRPEVNPRP | 0.188
RRIRNRPPRLPRPRPRPCDCPRP | 0.0143
RRIRIRPPRLPRPRPRPQHMPRP | -0.94
RRIRHRPPRLPRPRPRPPLIPRP | -0.0533
RRIRARPPRLPRPRPRPSHAPRP | 0.333
